Data from patent publication US10918733B2, “Lipopeptide- and lipoprotein-conjugates and its use” (HELMHOLTZ-ZENTRUM FUER INFEKTIONSFORSCHUNG GMBH, priority 2009, dated 2021).

Tested on: Ova-specific secretory IgA
Experiment: Local Ova-specific secretory IgA in lavages after i.n. immunization (ELISA)
Assay type: in vivo, C57BL6 mice
Conditions: day 38
Method: Experimental protocol: at day 38, mice were sacrificed and the final sampling was performed. Vaginal and lung lavages were obtained by flushing the organs with 1 ml of PBS supplemented with 50 mM EDTA, 0.1% BSA, and 10 mM PMSF. Lavages were then centrifuged to remove debris (10 min at 3000×g), and supernatant fluids were stored at −20° C. To determine the concentration of total IgA present in the lung and vaginal lavages, serial dilutions of the corresponding samples were incubated in microtiter plates that were previously coated with goat anti-mouse IgA (Sigma Chemie), as capture antibodies (100 μl/well). Serial dilutions of purified mouse IgA (Sigma Chemie) were used to generate a standard curve.
To investigate the capacity of BPPcysOva^mPEG to stimulate local immune responses given by the i.n. route, we analyzed the production of Ova-specific secretory IgA in lung, nasal and vaginal lavages from immunized animals.
FIG. 5: Humoral responses stimulated following vaccination using BPPcysOva^mPEG. […] At day 38 post primary immunisation, serum samples were collected and the IgG 1 and IgG2c titres of Ova-specific antibodies were determined by ELISA. […] At day 38 post primary immunisation broncho alveolar lavage (BAL), nasal lavages (NL) and Vaginal lavages (VL) were collected and the Ova-specific secretory IgA (sIgA) expression in samples of immunized mice were determined by ELISA.

B1: Ova: model antigen ovalbumin (Sigma Chemie) (protein, UniProt P01012 2-386, looked up)
Ovalbumin: GSIGAASMEFCFDVFKELKVHHANENIFYCPIAIMSALAMVYLGAKDSTRTQINKVVRFDKLPGFGDSIEAQCGTSVNVHSSLRDILNQITKPNDVYSFSLASRLYAEERYPILPEYLQCVKELYRGGLEPINFQTAADQARELINSWVESQTNGIIRNVLQPSSVDSQTAMVLVNAIVFKGLWEKAFKDEDTQAMPFRVTEQESKPVQMMYQIGLFRVASMASEKMKILELPFASGTMSMLVLLPDEVSGLEQLESIINFEKLTEWTSSNVMEERKIKVYLPRMKMEEKYNLTSVLMAMGITDVFSSSANLSGISSAESLKISQAVHAAHAEINEAGREVVGSAEAGVDAASVSEEFRADHPFLFCIKHIATNAVLFFGRCVSP
  Ova-specific IgA in lung lavages: failed to stimulate the production of detectable levels
